From patent publication US20240270821A1, “GIP/GLP1/GCG TRI-RECEPTOR AGONISTS AND USES THEREOF” (priority 2023, published 2024) come the findings set out here.

Common to all, as to assay: cell-based or functional assay
One assay deals with hGLP-1R (Homo sapiens, UniProt P43220).
Assay [1] has as its target human glucagon receptor (human) (UniProt P47871).
Assay [2] addresses T1, human GIP receptor (human) (UniProt P48546).
T1 sequence (looked up): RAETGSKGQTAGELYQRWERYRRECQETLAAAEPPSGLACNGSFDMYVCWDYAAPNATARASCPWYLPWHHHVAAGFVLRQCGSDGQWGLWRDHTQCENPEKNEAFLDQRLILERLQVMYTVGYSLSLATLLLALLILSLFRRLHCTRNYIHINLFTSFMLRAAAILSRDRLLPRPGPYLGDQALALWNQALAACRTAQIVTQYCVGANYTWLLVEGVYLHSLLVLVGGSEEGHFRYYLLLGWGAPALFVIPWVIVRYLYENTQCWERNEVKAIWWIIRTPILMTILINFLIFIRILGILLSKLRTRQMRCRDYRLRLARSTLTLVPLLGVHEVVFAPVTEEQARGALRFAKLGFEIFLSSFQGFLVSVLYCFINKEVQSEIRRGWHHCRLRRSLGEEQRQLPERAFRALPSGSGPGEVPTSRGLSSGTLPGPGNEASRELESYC

Chain of human glucagon receptor (human) (P47871 26-477): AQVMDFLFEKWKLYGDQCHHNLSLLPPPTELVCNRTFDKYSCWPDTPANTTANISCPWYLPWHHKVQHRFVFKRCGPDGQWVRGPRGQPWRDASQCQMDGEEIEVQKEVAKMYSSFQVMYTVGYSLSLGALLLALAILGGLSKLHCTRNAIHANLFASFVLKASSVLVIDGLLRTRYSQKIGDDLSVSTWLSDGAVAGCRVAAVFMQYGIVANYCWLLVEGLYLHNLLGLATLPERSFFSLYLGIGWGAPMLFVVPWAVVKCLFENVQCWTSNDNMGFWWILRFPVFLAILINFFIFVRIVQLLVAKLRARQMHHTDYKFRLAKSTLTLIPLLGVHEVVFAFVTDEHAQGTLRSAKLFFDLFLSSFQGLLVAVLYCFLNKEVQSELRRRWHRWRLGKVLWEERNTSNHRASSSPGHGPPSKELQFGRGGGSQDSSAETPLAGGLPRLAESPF
Chain of hGLP-1R (P43220 24-463): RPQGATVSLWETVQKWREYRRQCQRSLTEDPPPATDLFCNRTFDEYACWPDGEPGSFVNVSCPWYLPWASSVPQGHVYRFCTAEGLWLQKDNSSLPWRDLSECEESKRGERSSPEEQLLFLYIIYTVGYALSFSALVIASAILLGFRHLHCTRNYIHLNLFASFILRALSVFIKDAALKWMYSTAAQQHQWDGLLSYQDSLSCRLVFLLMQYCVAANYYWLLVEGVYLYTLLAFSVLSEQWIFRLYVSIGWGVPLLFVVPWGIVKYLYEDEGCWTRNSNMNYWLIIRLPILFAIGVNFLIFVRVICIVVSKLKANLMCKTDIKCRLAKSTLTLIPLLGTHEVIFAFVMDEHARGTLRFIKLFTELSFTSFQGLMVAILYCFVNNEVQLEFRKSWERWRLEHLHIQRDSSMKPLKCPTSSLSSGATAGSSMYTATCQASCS

B1: Example 1196 (peptide)
chain: YXQGTXTSDXXIXLDXKAQXEFIEXLIEGGPPSXXPPPXSE
modifications: non-natural residues; lipidated Lys AEEA-γGlu-C18 diacid; C-term amide; synthetic construct; SITE 2: note = 2-Aminoisobutyric Acid; SITE 6: note = alpha-methyl-2-fluoro-L-phenylalanine; SITE 10: note = 3-(4-Pyridyl)-L-alanine; SITE 11: note = alpha-methyl-L-serine; SITE 13: note = alpha-methyl-leucine; SITE 16: note = L-ornithine; SITE 17: note = Lysine is chemically mo
In the case of B1, the Relative cAMP EC50 with hGLP-1R turned out to be 0.418 nM; in assay [1], 1.9 nM; in assay [2] it was 7.56 pM. Moreover, the results for the cAMP Rel EC50 (in the presence of 1% HSA) (with hGLP-1R; in assay [1]; in assay [2]) were 45.4 nM, 257 nM and 0.605 nM, respectively.

B2: Example 1203 (peptide)
chain: YXQATXTSDXXIXLDXKAQXEFIEXLIEGGPSSGAPPPSGS
modifications: synthetic construct; SITE 2: note = 2-Aminoisobutyric Acid; SITE 4: note = D-amino acid; SITE 6: note = alpha-methyl-2-fluoro-L-phenylalanine; SITE 10: note = 3-(4-Pyridyl)-L-alanine; SITE 11: note = alpha-methyl-L-serine; SITE 13: note = alpha-methyl-leucine; SITE 16: note = L-ornithine; SITE 17: n
Consider B2, for which the figures for the Relative cAMP EC50 (in the assay with hGLP-1R; in assay [1]; in assay [2]) were 0.292 nM, 2.58 nM and 77.4 pM, respectively. Besides, the cAMP Rel EC50 (1% HSA) with hGLP-1R was 38.9 nM; in assay [1] it was 436 nM; in assay [2], 8.5 nM.

B3: Example 1192 (peptide)
chain: YXQGTXTSDXXIXLDXKAQXEFIEXLIEGGPSSXAPPPEGE
modifications: non-natural residues; AEEA-γGlu-C18 diacid on Lys; C-terminal amide; synthetic construct; SITE 2: note = 2-Aminoisobutyric Acid; SITE 6: note = alpha-methyl-2-fluoro-L-phenylalanine; SITE 10: note = 3-(4-Pyridyl)-L-alanine; SITE 11: note = alpha-methyl-L-serine; SITE 13: note = alpha-methyl-leucine; SITE 16: note = L-ornithine; SITE 17: note = Lysine is chemically mo
As to B3, the figures for the Relative cAMP EC50 (in the assay with hGLP-1R; in assay [1]; in assay [2]) were 0.499 nM, 1.54 nM and 9.24 pM, respectively. Further, the cAMP Rel EC50 (in the presence of 1% HSA) in the assay with hGLP-1R was found to be 59.5 nM; in assay [1] it was 218 nM; in assay [2], 1.06 nM.

B4: Example 1193 (peptide)
chain: YXQGTXTSDXXIXLDXKAQXEFIEXLIEGGPPSXEPPPXGE
modifications: non-natural residues (Aib, αMeF(2F), 4Pal, Orn, Me4Pal); lipidated Lys; C-amide; synthetic construct; SITE 2: note = 2-Aminoisobutyric Acid; SITE 6: note = alpha-methyl-2-fluoro-L-phenylalanine; SITE 10: note = 3-(4-Pyridyl)-L-alanine; SITE 11: note = alpha-methyl-L-serine; SITE 13: note = alpha-methyl-leucine; SITE 16: note = L-ornithine; SITE 17: note = Lysine is chemically mo
Consider B4, for which the results for the Relative cAMP EC50 (with hGLP-1R; in assay [1]; in assay [2]) were 0.544 nM, 1.56 nM and 8.97 pM, respectively. Further, the cAMP Rel EC50 (in the presence of 1% HSA) was 66.2 nM in the assay with hGLP-1R, 202 nM in assay [1] and 0.803 nM in assay [2].

B5: Example 1197 (peptide)
chain: YXQGTXTSDXXIXLDXKAQXEFIEXLIEGGPPSXXPPPXGGGE
modifications: Lys acylated AEEA-γGlu-C18 diacid; non-natural residues; C-amide; synthetic construct; SITE 2: note = 2-Aminoisobutyric Acid; SITE 6: note = alpha-methyl-2-fluoro-L-phenylalanine; SITE 10: note = 3-(4-Pyridyl)-L-alanine; SITE 11: note = alpha-methyl-L-serine; SITE 13: note = alpha-methyl-leucine; SITE 16: note = L-ornithine; SITE 17: note = Lysine is chemically mo
As for B5, the Relative cAMP EC50 with hGLP-1R came out at 0.407 nM; in assay [1], 1.88 nM; in assay [2], 6.66 pM. Besides, the cAMP Rel EC50 (in the presence of 1% HSA) with hGLP-1R was 46.1 nM; in assay [1] it was 288 nM; in assay [2] it was 0.639 nM.

B6: Example 1199 (peptide)
chain: YXQGTXTSDXXIXLDXKAQXEFIEXLIEGGPPSXXPPPSGGGE
modifications: Lys acylated with AEEA-γGlu-C18 diacid; non-natural residues; C-amide; synthetic construct; SITE 2: note = 2-Aminoisobutyric Acid; SITE 6: note = alpha-methyl-2-fluoro-L-phenylalanine; SITE 10: note = 3-(4-Pyridyl)-L-alanine; SITE 11: note = alpha-methyl-L-serine; SITE 13: note = alpha-methyl-leucine; SITE 16: note = L-ornithine; SITE 17: note = Lysine is chemically mo
For the molecule B6, the Relative cAMP EC50 with hGLP-1R is 0.5 nM; in assay [1], 2.05 nM; in assay [2], 7.6 pM. Moreover, the cAMP Rel EC50 (in the presence of 1% HSA) amounted to 63.9 nM with hGLP-1R, 352 nM in assay [1] and 0.733 nM in assay [2].

B7: Example 1234 (peptide)
chain: YXQGTXTSDXXIXLDXQAQXEFIEXLIEGGPSSGAPPPSGGGE
modifications: not fully specified; no fatty acid conjugated; synthetic construct; SITE 2: note = 2-Aminoisobutyric Acid; SITE 6: note = alpha-methyl-2-fluoro-L-phenylalanine; SITE 10: note = …; SITE 11: note = alpha-methyl-L-serine; SITE 13: note = alpha-methyl-leucine; SITE 16: note = L-ornithine; SITE 20: note = 3-(4-Pyridyl)-L-alanine
Take B7: the Relative cAMP EC50 with hGLP-1R amounted to 1.17 nM; in assay [1], 11.6 nM; in assay [2], 13.5 pM. In addition, the cAMP Rel EC50 (1% HSA) with hGLP-1R worked out at 1.15 nM; in assay [1], 11.7 nM; in assay [2], 0.011 nM.

B8: Example 1213 (peptide)
chain: YXQGTXTSDXXIXLDXXAQXEFIEXLIEGGPSSGAPPPSGGGE
modifications: synthetic construct; SITE 2: note = 2-Aminoisobutyric Acid; SITE 6: note = alpha-methyl-2-fluoro-L-phenylalanine; SITE 10: note = 3-(4-Pyridyl)-L-alanine; SITE 11: note = alpha-methyl-L-serine; SITE 13: note = alpha-methyl-leucine; SITE 16: note = L-ornithine; SITE 17: note = Ornithine is chemically
Consider B8, for which the values for the Relative cAMP EC50 (in the assay with hGLP-1R; in assay [1]; in assay [2]) were 0.423 nM, 1.69 nM and 7.21 pM, respectively. The cAMP Rel EC50 (1% HSA) with hGLP-1R came to 44 nM; in assay [1] it was 268 nM; in assay [2], 0.616 nM.

B9: Example 1201 (peptide)
chain: YXQGTXTSDXXIXLDXKAQXEFIEXLIEGGPPSXEPPPSGGGE
modifications: non-natural residues; acylated Lys; C-terminal amide; synthetic construct; SITE 2: note = 2-Aminoisobutyric Acid; SITE 6: note = alpha-methyl-2-fluoro-L-phenylalanine; SITE 10: note = 3-(4-Pyridyl)-L-alanine; SITE 11: note = alpha-methyl-L-serine; SITE 13: note = alpha-methyl-leucine; SITE 16: note = L-ornithine; SITE 17: note = Lysine is chemically mo
Turning to B9, the Relative cAMP EC50 with hGLP-1R is 0.888 nM; in assay [1] it was 1.76 nM; in assay [2], 9.59 pM. In addition, the cAMP Rel EC50 (in the presence of 1% HSA) with hGLP-1R worked out at 93.9 nM; in assay [1], 234 nM; in assay [2] it was 1.02 nM.

B10: Example 1204 (peptide)
chain: YXQATXTSDXXIXLDXKAQXEFIEXLVEGGPSSGAPPPSGS
modifications: synthetic construct; SITE 2: note = 2-Aminoisobutyric Acid; SITE 4: note = D-amino acid; SITE 6: note = alpha-methyl-2-fluoro-L-phenylalanine; SITE 10: note = 3-(4-Pyridyl)-L-alanine; SITE 11: note = alpha-methyl-L-serine; SITE 13: note = alpha-methyl-leucine; SITE 16: note = L-ornithine; SITE 17: n
B10: the Relative cAMP EC50 with hGLP-1R came out at 0.338 nM; in assay [1] it was 3.5 nM; in assay [2] it was 210 pM. Further, the cAMP Rel EC50 (1% HSA) with hGLP-1R worked out at 37.4 nM; in assay [1], 507 nM; in assay [2] it was 15.8 nM.

B11: Example 1210 (peptide)
chain: YXQGTXTSDXXIXLDXXAQXEFIEXLVEGGPSSGAPPPSGS
modifications: synthetic construct; SITE 2: note = 2-Aminoisobutyric Acid; SITE 6: note = alpha-methyl-2-fluoro-L-phenylalanine; SITE 10: note = 3-(4-Pyridyl)-L-alanine; SITE 11: note = alpha-methyl-L-serine; SITE 13: note = alpha-methyl-leucine; SITE 16: note = L-ornithine; SITE 17: note = Ornithine is chemically
B11: the Relative cAMP EC50 with hGLP-1R was 0.375 nM; in assay [1], 2.25 nM; in assay [2], 7.04 pM. Besides, the values for the cAMP Rel EC50 (1% HSA) (with hGLP-1R; in assay [1]; in assay [2]) were 38.1 nM, 288 nM and 0.635 nM, respectively.
